This assay has as its target receptors for neurturin on the cell surface of human neuroblastoma cell line TGW (JCRB0618). Nature of the assay: cell-based or functional assay.

B1: human recombinant neurturin (unmodified protein), Q99748 96-197 (ligand)
chain: ARLGARPCGLRELEVRVSELGLGYASDETVLFRYCAGACEAAARVYDLGLRRLRQRRRLRRERVRAQPCCRPTAYEDEVSFLDAHSRYHTVHELSARECACV
The molecule B1 showed a biological activity in vitro (tyrosine hydroxylase reporter gene, luciferase, TGW cells), EC50 of 2.2 ng/ml.

B2: mono-mPEG-CHO-neurturin, Q99748 96-197; Q99748 96-197 (ligand)
chain 1: B1 chain
chain 2: B1 chain
modifications: here or on the partner: linear 5 kDa polyethylene glycol butyraldehyde-derived PEG on the N-terminal amino acid
Turning to B2, the reporter gene activity (luciferase, SRE reporter in TGW cells), EC50 amounted to 7.4 ng/mL.

B3: mono-CES0310-neurturin, Q99748 96-197; Q99748 96-197 (ligand)
chain 1: B1 chain
chain 2: B1 chain
modifications: here or on the partner: six-arm branched PEG of about 5 kDa on the N-terminal amino acid
Consider B3, for which the reporter gene activity (luciferase, SRE reporter in TGW cells), EC50 was found to be 12 ng/mL.

B4: mono-mPEG-NHS-neurturin, Q99748 96-197; Q99748 96-197 (ligand)
chain 1: B1 chain
chain 2: B1 chain
modifications: here or on the partner: about 5 kDa linear PEG (mPEG-succinimidyl succinat reagent, NHS-method) on the N-terminal amino acid
Molecule B4 showed a reporter gene activity (luciferase, SRE reporter in TGW cells), EC50 of 9.7 ng/mL.
